Laboratory results: the supplement of paper PMC10567573
± gives the standard deviation.

Experiment: protein stability index of a GFP-peptide fusion (GPS, HEK-293T) (PSI 1-6); higher = more stable
[1] = treatment: DMSO, c terminus: a fixed tail appended
[2] = treatment: MLN4924 1 uM, 8 h, c terminus: a fixed tail appended
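Also: 24-mer peptide tiles fused after GFP, lentivirally expressed, FACS-sorted into six equal bins by GFP/DsRed ratio, decoded by Illumina sequencing, PSI is the read-weighted mean bin number.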

Row | Sequence | protein stability index [1] | protein stability index [2] | protein stability index (treatment: DMSO, c terminus: native) | protein stability index (treatment: MLN4924 1 uM, 8 h, c terminus: native)
1 | GQCQVLVQRSPWLMMRMGILGRGL [TCAP] | 2.2 ± 0.14 | 2.14 ± 0.16 | – | –
2 | PNGLEAAYEFADRDEVRFFKGNKY [MMP1] | 3.74 ± 0.44 | 3.83 ± 0.3 | – | –
3 | ISSIKEKYPSHSFIGEESVAAGEK [IMPA1] | 4.8 ± 0.13 | 4.81 ± 0.23 | – | –
4 | VWVLMDEDVRIFFYQSPYDSEQVP [NCF4] | 2.3 ± 0.71 | 2.33 ± 0.64 | – | –
5 | KMGGKDFSFRYQQELEEEIKELYE [ATL3] | 2.52 ± 0.51 | 2.87 ± 0.32 | – | –
6 | RSCTPNAEVRHEIQDGTIHLYIYS [KMT2E] | 2.1 ± 0.33 | 2.57 ± 0.33 | – | –
7 | LRAVRQRSEFTLMAKRIGKDLSNT [STX5] | 2.64 ± 0.23 | 2.78 ± 0.37 | – | –
8 | LKDIHDDQDYLHSLGKARTAQVQK [FLOT1] | 4.67 ± 0.18 | 4.56 ± 0.24 | – | –
9 | LLSRLEEEEQDILQRLRENAAHLG [TRIM39] | 3.63 ± 0.16 | 3.71 ± 0.33 | – | –
10 | KEVMLFGHGTRKRVPLGRLELLEE [RSAD1] | 3.6 ± 0.19 | 3.59 ± 0.28 | – | –
11 | LRDGAVPLPESRREIEELLAEAKY [KCTD10] | 4.5 ± 0.25 | 4.66 ± 0.28 | – | –
12 | RYFSAWAEDDHMLIQNEYRNGGSL [WEE1] | 2.67 ± 0.5 | 2.32 ± 0.4 | – | –
13 | LDGALRTFLKAFPLMGETQERERV [PSD2] | 2.96 ± 0.098 | 2.88 ± 0.25 | – | –
14 | LSIQVEEERRAREWLLDAPELPEG [ZMAT5] | 4.71 ± 0.34 | 5.06 ± 0.41 | – | –
15 | DEHIASEEPAEKEDLLQQMLERRY [CLCN6] | 5.03 ± 0.2 | 4.98 ± 0.16 | – | –
16 | VIGALLRFNQAILVSRHDPASRRR [LPCAT4] | 2.28 ± 0.22 | 2.36 ± 0.19 | – | –
17 | RGYPPPRDSYSSSSRGAPRGGGRG [RBMX] | 5.12 ± 0.36 | 5.3 ± 0.23 | – | –
18 | AKGIPQRAPPKRKRKRVKQRINTY [PCMTD1] | 4.41 ± 0.14 | 4.58 ± 0.16 | – | –
19 | RNQKGEQVFRLAFRSGALDLDSCS [MYORG] | 2.42 ± 0.33 | 2.48 ± 0.4 | – | –
20 | SIMSTGIVQGSSGAQGSGGGSTSA [CARM1] | 4.85 ± 0.24 | 5.12 ± 1 | – | –
21 | LLEQSLEEFAQAESKDQGKTLALA [ALDH8A1] | 4.68 ± 0.33 | 4.68 ± 0.14 | – | –
22 | PIDPAAWVSHTAAMTGTFPAYGMS [DVL3] | 2.73 ± 0.36 | 2.75 ± 0.18 | – | –
23 | ERPGAEGAPLLPPPLPPPSPPGSG [ACBD3] | 5.54 ± 0.24 | 5.47 ± 0.19 | – | –

Row | Sequence | protein stability index [1] | protein stability index [2] | protein stability index (treatment: DMSO, c terminus: native) | protein stability index (treatment: MLN4924 1 uM, 8 h, c terminus: native)
24 | KVPSEAPSPMPTHRSYLGPGSTSP [SLC6A17] | 4.66 ± 0.069 | 4.71 ± 0.32 | – | –
25 | RYLAVLESPIPEDKDRRFVFSYFL [EFHC1] | 2.37 ± 0.38 | 2.25 ± 0.85 | – | –
26 | ARQHALYIWEKSIGNLVKILHGTR [RBBP5] | 2.26 ± 0.36 | 2.5 ± 0.41 | – | –
27 | NLRLQRKLQREMERREALCRQLSE [CCDC6] | 3.52 ± 0.27 | 3.63 ± 0.43 | – | –
28 | LLSRNQLSTAASLGPSGLQNHGQH [LCOR] | 3.28 ± 0.095 | 3.46 ± 0.23 | – | –
29 | STPQGKGEVVKIPSRVHGSLEPFR [PWWP2B] | 3.86 ± 0.16 | 4.03 ± 0.28 | – | –
30 | NTNVLSRDLIPPHVNFSHLTTKDY [SLC6A17] | 3.49 ± 0.37 | 3.87 ± 0.12 | – | –
31 | IFSFGQLPLALVTWVPMFLSTLLA [SOAT2] | 2.9 ± 0.43 | 2.72 ± 0.56 | – | –
32 | DKFVIVDCRYPYEYEGGHIKTAVN [CDC25B] | 2.48 ± 0.28 | 2.21 ± 0.23 | – | –
33 | APANVAKIQLRLAGQKRKHSEGRV [LOXL2] | 3.88 ± 0.13 | 4.53 ± 0.32 | – | –
34 | AIMRSPQMVSAIVRTMQNTNDVET [CTNNB1] | 3.77 ± 0.098 | 3.81 ± 0.14 | – | –
35 | EMQLSEVQIKTWFQNRRMKHKRQM [VENTX] | 3.26 ± 0.16 | 3.19 ± 0.37 | – | –
36 | QTLSPDMQGAYCTFPASVLAPVPT [DUSP5] | 3.51 ± 0.32 | 3.51 ± 0.21 | – | –
37 | FPKQILDQNNVIENEETGEFSIDN [MIA2] | 5.136 ± 0.027 | 5.06 ± 0.24 | – | –
38 | HLVPEPDRLEEQLPWLSLRALKFR [DNAAF3] | 2.63 ± 0.1 | 2.78 ± 0.26 | – | –
39 | NIMGIENICELAARMLFSAVEWAR [NR2F2] | 3.04 ± 0.18 | 2.79 ± 0.25 | – | –
40 | FSTDAFSSPPQGASPVPESSLTAD [SNAP91] | 3.65 ± 0.57 | 4.25 ± 0.43 | – | –
41 | MAALSRALGPLRTPAPPLWIGLFL | 2.35 ± 0.26 | 2.28 ± 0.63 | – | –
42 | EGSLWAVGTESQGRDWRHLPTITS [PXN] | 3.23 ± 0.16 | 3.34 ± 0.16 | – | –
43 | ALKHPWISHRSTVASCMHRQETVD [CAMK2A] | 3.18 ± 0.13 | 3.35 ± 0.16 | – | –
44 | VDEVSVSLRLWDTFGDHHKDRRFA [RHOBTB1] | 3.01 ± 0.1 | 3.08 ± 0.2 | – | –
45 | PKPDRLLVLKVLWNDFLMCYSSRP [SLC19A2] | 2.89 ± 0.2 | 3.08 ± 0.46 | – | –
46 | DLESQVESLREELICLKKNHEEEV [KRT34] | 4.86 ± 0.24 | 5.13 ± 0.16 | – | –

Row | Sequence | protein stability index [1] | protein stability index [2] | protein stability index (treatment: DMSO, c terminus: native) | protein stability index (treatment: MLN4924 1 uM, 8 h, c terminus: native)
47 | MYHYLQFAYYKLNDVRQAARSAAS [P3H4] | 2.05 ± 0.42 | 2.33 ± 0.37 | – | –
48 | LRALGELLRRDLGVGTSMEGASPL [FANCE] | 2.92 ± 0.32 | 2.91 ± 0.43 | – | –
49 | QLHIFNTLRSHLIDKGMLTSTTED [CDS2] | 2.93 ± 0.2 | 3.09 ± 0.26 | – | –
50 | GHMDDGGYSMNFNMSSSRGPLPVK [RBMX] | 4.05 ± 0.21 | 3.95 ± 0.24 | – | –
51 | LSCLHSVCEQCLQILYESCPKYKF [RNF208] | 2.2 ± 0.25 | 2.35 ± 0.51 | – | –
52 | KEYAAKFIKKRRLSSSRRGVSREE [DAPK3] | 4.15 ± 0.15 | 4.379 ± 0.041 | – | –
53 | FTGKAEMGGPFSYVYFFCTVPEIL [TMEM106C] | 2.72 ± 0.59 | 2.16 ± 0.87 | – | –
54 | LKNKKGAKQQKFIKAVTHQVKFGQ [ZC3H15] | 3.14 ± 0.57 | 3.25 ± 0.39 | – | –
55 | KLFDVPSLNGVYPRMNEVYTRLGE [CEP70] | 2.65 ± 0.17 | 2.53 ± 0.34 | – | –
56 | VELPMNSSNGNDNGNGKNGGLEHV [BNIP3L] | 5.25 ± 0.17 | 5.23 ± 0.22 | – | –
57 | QLFSQIGPCKNCKMIMDTAGNDPY [TIA1] | 2.32 ± 0.1 | 2.45 ± 0.28 | – | –
58 | VPLWGQLLLFLVFVIVLFFIYHFM [EMD] | 2.41 ± 0.17 | 2.17 ± 0.47 | – | –
59 | VMRMLGQTPTKEELDAIIEEVDED [TNNC2] | 5.41 ± 0.28 | 5.34 ± 0.27 | – | –
60 | MRTGQNTWESKNILAVSFAPLVQP [PCMTD1] | 2.84 ± 0.65 | 2.71 ± 0.46 | – | –
61 | VLKAHNEYRQKHGVPPLKLCKNLN [GLIPR2] | 2.92 ± 0.17 | 3.33 ± 0.18 | – | –
62 | CSPALKRSHSDSLDHDIFQLIDPD [CDC25A] | 3.76 ± 0.34 | 3.72 ± 0.41 | – | –
63 | MASSSTVPLGFHYETKYVVLSYLG [BCL2L13] | 2.64 ± 0.48 | 2.33 ± 0.45 | – | –
64 | LPCARVQICRAQGLETLFSKAQEL [ZSWIM9] | 2.87 ± 0.51 | 2.33 ± 0.79 | – | –
65 | AEFILLGLLEAPGLQPVVFVLFLF [OR3A1] | 2.68 ± 0.32 | 2.95 ± 0.4 | – | –
66 | CSKQSGSFRKFRYGYNNVVTIPAG [ADAMTS4] | 2.3 ± 0.44 | 2.23 ± 0.35 | – | –
67 | LTINPAKRITAHEALKHPWVCQRS [CAMK2B] | 2.55 ± 0.29 | 2.95 ± 0.16 | – | –
68 | TFICYVASSASAFLTAPLLEFLLA [CMTM3] | 3.36 ± 0.35 | 2.98 ± 0.39 | – | –
69 | DTRLGQVSALPLPPAMKRYLLYQ [SPSB2] | – | – | 2.4 ± 0.42 | 2.69 ± 0.3

Row | Sequence | protein stability index [1] | protein stability index [2] | protein stability index (treatment: DMSO, c terminus: native) | protein stability index (treatment: MLN4924 1 uM, 8 h, c terminus: native)
70 | NGTKADGKDAKTTNGHGGEAAEGK [TRIM29] | 5.48 ± 0.2 | 5.55 ± 0.12 | – | –
71 | ACNFEPHESFFSLFSDPRSTRLTR [ZER1] | 2.86 ± 0.22 | 2.92 ± 0.21 | – | –
72 | PREALSRLQELCHGWLRPEMRTKE [ZNF263] | 3.31 ± 0.23 | 3.55 ± 0.28 | – | –
73 | HARNGLSLKEEHRAYDLLRAASEN [IKZF1] | 3.73 ± 0.28 | 4.03 ± 0.35 | – | –
74 | EILRYMKEFTLLLSAANVCLDPII [P2RY14] | 2.44 ± 0.47 | 2.26 ± 0.31 | – | –
75 | SHPDTSYYIRYRGAVYADSGNFER [FEM1A] | 2.88 ± 0.38 | 2.83 ± 0.28 | – | –
76 | FDRNADGYIDPEELAEIFRASGEH [TNNC2] | 5.32 ± 0.21 | 5.25 ± 0.2 | – | –
77 | ILLEYCSRRSMAHILKARKVLTEP [PLK2] | 2.48 ± 0.5 | 2.18 ± 0.33 | – | –
78 | MEAPGLAQAAAAESDSRKVAEETP [PRKX] | 5.56 ± 0.38 | 5.54 ± 0.31 | – | –
79 | YVGNLPPDIRTKDIEDVFYKYGAI [SRSF1] | 2.28 ± 0.35 | 2.43 ± 0.36 | – | –
80 | ESKLLRDLSAANEKNLLLQNQVDE [LRRC45] | 5.37 ± 0.2 | 5.15 ± 0.34 | – | –
81 | EDDDWGEDTTEEAQRRRMDEISDH [EIF5] | 5.59 ± 0.24 | 5.34 ± 0.18 | – | –
82 | HAQTFVALCATDVKFISNPPSMVA [CCND1] | 2.11 ± 0.29 | 2.08 ± 0.46 | – | –
83 | WKNTKKMGVGKASASDGSSFVVAR [GLIPR2] | 3.64 ± 0.27 | 3.71 ± 0.3 | – | –
84 | ERVVREALEKLRSEMEEEKRQAVN [ZMYND11] | 4.59 ± 0.46 | 4.64 ± 0.063 | – | –
85 | PSHHPTDPVELRRLNFQTPGMASH [PTPRD] | 3.79 ± 0.13 | 3.94 ± 0.34 | – | –
86 | KAKHFKCHICHKKLYTGPGLAIHC [ZNF207] | 2.33 ± 0.23 | 2.62 ± 0.76 | – | –
87 | DRDPNSLLISCAVSYRGAWWYRNC [TNXB] | 2.83 ± 0.24 | 2.77 ± 0.98 | – | –
88 | FSFMYILVGLTVIGAFLNLVVLRF [KCNK9] | 3.18 ± 0.13 | 3.25 ± 0.31 | – | –
89 | GDWIGLYRHFLKSPNFDGWFKTRR [DENND6A] | 2.82 ± 0.038 | 2.49 ± 0.49 | – | –
